Laboratory results reported in patent US8003609B2, “Method for ameliorating pain by modification of NMDA receptors through inhibition of Src” (The Hospital for Sick Children, priority 2004, dated 2011).
Square brackets hold non-standard residues; d marks the D form. Ends that are not written are not given here. pY = N[C@@H](Cc1ccc(OP(=O)(O)O)cc1)C(=O)O

Legend:
ND2.1-GST = target: T1, ND2.1-GST (Homo sapiens, UniProt P03891, A265T); test: in vitro binding of biotinylated Src peptides to ND2.1-GST (blot / dot blot); settings: biotinylated peptide, streptavidin-HRP detection
T1 construct: made in house; host or cells: bacteria
Procedure: (§1) Src, Fyn, and ND2 recombinant proteins were prepared. The cDNAs encoding the SH3 and SH2 domains of mouse n-Src and Fyn were PCR subcloned, ligated in frame into pGEX4T-1 (Amersham Pharmacia Biotech, Baie d'Urfé, Québec), and sequenced. These plasmids, as well as plasmids encoding the unique domains of Src and Fyn in pGEX2T'6, were transformed into BL21 bacteria, and GST fusion proteins were purified by glutathione affinity chromatography. To create the ND2.1, ND2.2, and ND2.3 GST fusion proteins, cDNAs encoding amino acids 239-321 (ND2.1-GST; SEQ ID NO:7), amino acids 189-238 (ND2.2-GST; SEQ ID NO:11), and amino acids 1-188 (ND2.3-GST; SEQ ID NO:13) of human ND2 were PCR subcloned and ligated into pGEX4T-1 (the nucleotide sequence encoding ND2 is SEQ ID NO:8 and the amino acid sequence is SEQ ID NO:9; the nucleotide sequences encoding ND2.1; ND2.2 and ND2.3 are SEQ ID NOS:6, 10 and 12, respectively). Using PCR-based single nucleotide mutagenesis, all cDNAs encoding ND2 fusion proteins were corrected for differences between mitochondrial and nuclear codons to prevent premature translation termination and protein truncation. All constructs were then confirmed by sequencing. The plasmids were transformed into bacteria, and GST fusion proteins were purified by glutathione affinity chromatography.
Src40-58 and scrambled Src peptides were biotinylated by incubating with Sulfo-NHS-Biotin (Pierce Chemical Co., Rockford, Ill.) for 30 minutes at room temperature (SEQ ID NO:4, Src protein). […] Bound probe was then detected on film using an ECL kit.
To detect the binding of ND2.1-GST with Src peptides, the ND2.1-GST fusion protein was purified on glutathione SEPHAROSE. […] Bound probe was then detected on film using an ECL kit (Amersham Pharmacia Biotech, Baie d'Urfé, Québec).
Src40-58, Src40-49, Src49-58, scrambled Src40-58, TAT-Src40-49, and scrambled TAT-Src40-49 peptides were biotinylated by incubating with Sulfo-NHS-Biotin (Pierce Chemical Co., Rockford, Ill.) for 30 minutes at room temperature. […] Bound probe was then detected on film using an ECL kit.

Src unique domain = target: T2, Src unique domain (Mus musculus, UniProt P05480); test: blot of ND2-GST fusion proteins probed with biotinylated Src unique domain; type: binding; settings: GST fusion protein
T2 construct: amino acids 4-82 (the Src unique domain); GST (N); made in house; host or cells: BL21 bacteria
Procedure: as §1
(§2) Detailed protocols for in vitro binding assays, pull down assays, immunoblotting, and co-immunoprecipitation techniques can be found in Pelkey et al. (Neuron 34:127-138 2002).
As yeast two-hybrid screening may reveal false positive protein-protein interactions, the interaction between Src and ND2 was observed using an independent methodological approach. Direct binding in vitro between ND2 and Src was tested using recombinant proteins. A series of GST fusion proteins comprised of portions of ND2 that spanned the overlapping region found with the yeast two-hybrid screen were made (FIG. 1A). […]

NMDAR = test: mEPSC whole cell recordings in cultured hippocampal neurons, NMDAR component; type: cell-based, rat
Procedure: (§3) Fetal rat hippocampal neurons were prepared, cultured, and used for electrophysiological recordings 12-17 days after plating. Methods for whole cell recordings are described in Pelkey et al. (Neuron 34:127-138 2002).
(§4) In contrast, in control experiments administering EPQ(pY)EEIPIA (SEQ ID NO:5) increased the NMDAR component of mEPSCs by 172±28% and application of Src40-58 decreased the NMDAR component to 56±4% (FIGS. 5D-F). […] Composite traces are shown in black, the NMDAR component in dark grey, and the AMPAR component in light grey. Scale bars are 50 ms/10 pA. […] NMDA component data were calculated as Q20′/Q2′, and AMPA component data were calculated as A20′/A2′. […] An * indicates a significant difference, Student's t-test, p<0.05. Taking our results together, it is concluded that Src-dependent regulation of the activity of NMDARs depends on expression of ND2 through its anchoring of Src to the NMDAR complex.

AMPA receptor = test: mEPSC whole cell recordings in cultured hippocampal neurons, AMPA receptor component; type: cell-based, rat; settings: under the recording conditions used
Procedure: as §3, §4

[1] = target: T3, association of Src with the NMDAR complexes (Rattus norvegicus, UniProt P11662); test: co-immunoprecipitation of Src with NMDARs from PSD proteins; type: binding
T3 construct: from tissue; host or cells: rat brain post-synaptic density fraction
Procedure: as §2
(§5) Post-synaptic density proteins (Kennedy et al. Proceedings of the National Academy of Science USA 80:7357-7361 1983) were prepared from rat brain as described in detail (Pelkey et al. Neuron 34:127-138 2002). Cellular fractionation of rat brain tissue into nuclear, heavy mitochondrial, light mitochondrial, microsomal, and cytosolic fractions was performed by differential centrifugation of tissue homogenate in 0.25 M sucrose/10 mM HEPES-NaOH, 1 mM EDTA, pH 7.4 with 2 μg each of aprotinin, pepstatin A, and leupeptin (Sigma, St. Louis, Mo.) at 4° C. Nuclei were pelleted by centrifugation at 1 000 g for 10 minutes, the supernatant was removed and spun at 3 000 g for 10 minutes to obtain a heavy mitochondrial pellet. The supernatant was removed and spun at 16 000 g for 15 minutes to obtain a light mitochondrial pellet. The supernatant was removed and spun at 100 000 g for 1 hour to obtain a microsomal pellet and the cytosolic fraction. All pellets were then resuspended in RIPA buffer (50 mM Tris pH 7.6, 150 mM NaCl, 1 mM EDTA, 1% NP-40, 2.5 mg/ml NaDOC, 1 mM Na3VO4 1 mM PMSF, and 2 μg/ml each of protease inhibitors). The light mitochondrial fraction was used in subsequent experiments. […]

[2] = test system: SH2 or SH3 domains of Src; test: blot of ND2.1-GST probed with biotinylated SH2 and SH3 domains of Src; type: binding, mouse
Procedure: (§6) Src, Fyn, and ND2 recombinant proteins were prepared. The cDNAs encoding the SH3 and SH2 domains of mouse n-Src and Fyn were PCR subcloned, ligated in frame into pGEX4T-1 (Amersham Pharmacia Biotech, Baie d'Urfé, Québec), and sequenced. These plasmids, as well as plasmids encoding the unique domains of Src and Fyn in pGEX2T'6, were transformed into BL21 bacteria, and GST fusion proteins were purified by glutathione affinity chromatography. To create the ND2.1, ND2.2, and ND2.3 GST fusion proteins, cDNAs encoding amino acids 239-321 (ND2.1-GST; SEQ ID NO:7), amino acids 189-238 (ND2.2-GST; SEQ ID NO:11), and amino acids 1-188 (ND2.3-GST; SEQ ID NO:13) of human ND2 were PCR subcloned and ligated into pGEX4T-1 (the nucleotide sequence encoding ND2 is SEQ ID NO:8 and the amino acid sequence is SEQ ID NO:9; the nucleotide sequences encoding ND2.1; ND2.2 and ND2.3 are SEQ ID NOS:6, 10 and 12, respectively). Using PCR-based single nucleotide mutagenesis, all cDNAs encoding ND2 fusion proteins were corrected for differences between mitochondrial and nuclear codons to prevent premature translation termination and protein truncation. All constructs were then confirmed by sequencing. The plasmids were transformed into bacteria, and GST fusion proteins were purified by glutathione affinity chromatography. […]

Fyn unique domain = target: T4, Fyn unique domain (Mus musculus, UniProt P39688); test: blot of ND2.1-GST probed with biotinylated Fyn unique domain; type: binding
T4 construct: plasmids encoding the unique domains of Src and Fyn in pGEX2T'6; GST (N); made in house; host or cells: BL21 bacteria
Procedure: as §6

Src [3] = target: T5, Src (Rattus norvegicus, UniProt Q9WUD9); test: pull down of Src from PSD preparations by ND2-GST fusion proteins; type: binding
T5 construct: from tissue; host or cells: rat brain post-synaptic density fraction
Procedure: as §2, §5

Src [4] = target: Src (Homo sapiens, UniProt P12931); test: catalytic activity of Src in vitro; type: biochemical; settings: not illustrated
From the text: As ND2 alone is not catalytically active (J. E. Walker Quarterly Reviews of Biophysics 25(3):253-324 1992; Sazanov et al. Journal of Molecular Biology 302:455-464 2000; Sazanove et al. Biochemistry 39:7229-7235 2000), its functional role in the NMDAR complex was investigated. […] Thus, it is unlikely that ND2 is a target of Src or a regulator of Src kinase activity.

T4 sequence (P39688 1-81 limits assumed): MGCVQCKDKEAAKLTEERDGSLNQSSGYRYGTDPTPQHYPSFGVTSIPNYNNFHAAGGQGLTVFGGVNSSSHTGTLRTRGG
T3 sequence (P11662 whole entry, other chains not shown): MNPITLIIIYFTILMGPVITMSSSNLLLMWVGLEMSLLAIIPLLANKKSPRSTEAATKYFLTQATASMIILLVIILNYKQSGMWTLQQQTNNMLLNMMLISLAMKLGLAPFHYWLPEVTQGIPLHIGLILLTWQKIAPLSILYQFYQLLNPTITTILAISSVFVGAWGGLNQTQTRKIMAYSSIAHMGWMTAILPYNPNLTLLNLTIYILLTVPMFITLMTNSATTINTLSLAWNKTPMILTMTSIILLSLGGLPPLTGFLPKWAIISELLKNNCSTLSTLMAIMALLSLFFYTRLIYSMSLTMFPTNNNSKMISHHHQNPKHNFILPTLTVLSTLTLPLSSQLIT

Molecule: Src50-58: Src49-58: peptide comprising amino acid residues 49-58 of SEQ ID NO:4; printed Src50-58 in the summary (PSAAFAPAAA; listed as Homo sapiens)
- binding to ND2.1-GST (ND2.1-GST): did not interact

Molecule: Src40-49: peptide, 10 amino acid residues, corresponding approximately to amino acid positions 40-49 of the Src unique domain (SEQ ID NO:1) (KPASADGHR; listed as Homo sapiens)
- binding to ND2.1-GST (ND2.1-GST): interacts with ND2

Molecule: ND2.2-GST: GST fusion protein containing amino acids 189-238 of human ND2 (SEQ ID NO:11) (WMMAVLPYNPNMTILNLTIYIILTTTAFLLLNLNSSTTTLLLSRTWNKLT; also: GST fusion protein)
- binding to the unique domain of Src (Src unique domain): did not bind

Molecule: EPQ(pY)EEIPIA (EPQ[pY]EEIPIA)
- NMDAR component of mEPSCs, increased by (NMDAR; control experiments, cultured hippocampal neurons): 172±28%
- NMDAR component of the mEPSCs (NMDAR; neurons treated with chloramphenicol for 48 hours): not affected
- AMPA receptor component of the mEPSCs (AMPA receptor): neither of these reagents affected

B1: ND2.1-GST: GST fusion protein containing amino acids 239-321 of human ND2 (SEQ ID NO:7) (protein)
chain: WLTPLIPSTLLSLGGLPPLTGFLPKWTIIEEFTKNNSLIIPTIMATITLLNLYFYLRLIYSTSITLLPMSNNVKMKWQFE
modifications: left off: a dimerising Fc or GST
- co-immunoprecipitation of Src with NMDARs [1]: suppressed
- binding to the unique domain of Src (Src unique domain): bound
- binding to the SH2 or SH3 domains of Src [2]: did not bind
- interaction in vitro with the Fyn unique domain (Fyn unique domain): did not interact
- pulls Src from PSD preparations (Src [3]): pulls Src
- catalytic activity of Src in vitro (Src [4]): did not alter

B2: ND2.3-GST: GST fusion protein containing amino acids 1-188 of human ND2 (SEQ ID NO:13) (protein)
chain: MNPLAQPVIYSTIFAGTLITALSSHWFFTWVGLEMNMLAFIPVLTKKMNPRSTEAAIKYFLTQATASMILLMAILFNNMLSGQWTMTNTTNQYSSLMIMMAMAMKLGMAPFHFWVPEVTQGTPLTSGLLLLTWQKLAPISIMYQISPSLNVSLLLTLSILSIMAGSWGGLNQTQLRKILAYSSITHMG
modifications: left off: a dimerising Fc or GST
- binding to the unique domain of Src (Src unique domain): did not bind
